The labels stand for the following.
B3: His–M1 (influenza virus M1 protein, wild type) (natural protein)
chain: MSLLTEVETYVLSIIPSGPLKAEIAQRLEDVFAGKNTDLEVLMEWLKTRPILSPLTKGILGFVFTLTVPSERGLQRRRFVQNALNGNGDPNNMDKAVKLYRKLKREITFHGAKEISLSYSAGALASCMGLIYNRMGAVTTEVAFGLVCATCEQIADSQHRSHRQMVTTTNPLIRHENRMVLASTTAKAMEQMAGSSEQAAEAMEVASQARQMVQAMRTIGTHPSSSAGLKNDLLENLQAYQKRMGVQMQRFK

For assay [1], the target named is B3. The experiment in a line: far-Western, overlay or dot blot.
In assay [2] the target is GST–Hsc70 wild-type (1–646 aa) (UniProt P11142 1-646). Kind of assay: pull-down.
In assay [3] the target is B3. The experiment in a line: pull-down.

Sequence of GST–Hsc70 wild-type (1–646 aa) (P11142 whole entry, the tested form may be a part): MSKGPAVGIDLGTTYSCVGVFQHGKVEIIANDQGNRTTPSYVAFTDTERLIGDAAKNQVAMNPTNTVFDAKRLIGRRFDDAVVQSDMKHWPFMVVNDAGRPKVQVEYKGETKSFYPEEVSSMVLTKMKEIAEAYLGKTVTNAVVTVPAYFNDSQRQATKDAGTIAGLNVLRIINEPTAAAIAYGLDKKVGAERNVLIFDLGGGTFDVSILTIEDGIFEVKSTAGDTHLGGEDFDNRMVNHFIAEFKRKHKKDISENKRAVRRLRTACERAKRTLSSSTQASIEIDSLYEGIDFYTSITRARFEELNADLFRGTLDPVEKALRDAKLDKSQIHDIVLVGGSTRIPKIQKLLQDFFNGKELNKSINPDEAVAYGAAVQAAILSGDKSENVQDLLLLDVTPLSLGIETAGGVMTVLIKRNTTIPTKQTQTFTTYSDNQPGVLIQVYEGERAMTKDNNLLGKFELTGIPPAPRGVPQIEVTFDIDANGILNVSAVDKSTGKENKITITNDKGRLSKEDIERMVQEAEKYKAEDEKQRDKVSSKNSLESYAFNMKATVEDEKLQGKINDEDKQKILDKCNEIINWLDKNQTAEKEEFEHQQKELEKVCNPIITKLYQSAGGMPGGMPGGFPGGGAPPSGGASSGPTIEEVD

B1: GST–Hsc70 N402 (1–402 aa) (domain or fragment)
chain: not shown
In the case of B1, the relative band intensity in assay [1] is 0.71 relative (wild type = 1).

B2: GST–Hsc70 N384 (1–384 aa) (domain or fragment)
chain: not shown
As to B2, the relative band intensity in assay [1] was 0.26 relative (wild type = 1).

Broadly, the Kd is the concentration at which binding is half-saturated. In assay [2], B3 came in with a Kd of 0.1 µM.

B4: GST–NS2 (natural protein)
chain: MDPNTVSSFQDILLRMSKMQLESSSGDLNGMITQFESLKLYRDSLGEAVMRMGDLHSLQNRNEKWREQLGQKFEEIRWLIEEVRHKLKITENSFEQITFMQALHLLLEVEQEIRTFSFQLI
Molecule B4 yielded a dissociation constant Kd in assay [3] of 6 µM.
